Test results: paper PMC9654539, “Alkaline Stress Causes Changes in Polyamine Biosynthesis in Thermus thermophilus” (International Journal of Molecular Sciences, 2022)

Substrate: N=C(N)NCCCCN
Assay: purified protein
Format: biochemical, Thermus thermophilus
Details: pH 10.0, 75 °C, 50 mM Tris-HCl, 10 μM MnCl2, 0.005–1 mM agmatine

B1: TtSpeB (aminopropylagmatine ureohydrolase) (Thermus thermophilus HB8) (protein)
chain: MRLVFGEKDTPYEEARVVVLPVPYDLSLSFLPGARRGPEAILLASRELEPFLLELGAAPEEVGIHAAEPVPWVAGMAEESHRLIREEALRHLRAGKWVVALGGDHSVTHPLVQAHREALGDFSLLHVDAHADLYPEWQGSVYSHASPFYRLLTEGFPLVQVGIRAMDRDSLRLARKKGVALFPAHRIHREGLPLDEILRALGKRVYISLDFDALDPSLMPSVGTPLPGGLSYRQVVDLLEAVFREKEVVGMDFVELSPNGQFHAEMTAAQLVYHAIGLKGLQAGWLSREVDHI
notes: gene amplified from HB8 genomic DNA, pET21b (pET21speBHis, NdeI/HindIII), His-tagged, tag not reported cut, E. coli BL21(DE3), heat step 70 °C, Ni-NTA
  Km: 171 µM
